This note sets out measurements from the DeepSol protein solubility set.

This series can be described thus: soluble on expression in E. coli; label from the status in PepcDB or PDB records.
Take “MGSDKIHHHHHHSAGPIHPASLDIDNGNGTNVFIAYEWVDYDYKTYTENGLALDEAWGHLYMAIVAVAGVHVTGYVHNDIDRGNFVINSDGILKLTDFGMSSSKDASCSGKALFFPPETFQPGFFQRKRDASALARVQARDLFQVGNTMLEAILGKEGEIYQAERYGLKLAMVKKKPDFKQDLKVVIQDEKKFRKSFGKIGTKKIEDKLCVDPSRQAEVVKNLARWGLQNSLSL”: the “soluble on expression in E. coli” value is “not soluble”.
Then “MAHHHHHHMGNKLCCINNDLQNSKSSIDIYKYDPREIYGDYDDWTLESWIDKYKNGNSIKVAFPDGNEIQCHFKIFLKERCFELSLDNKVRVIKFNDINCILHRNSCESLLESEQNLLKSPKVIGIRLISTLKAIAFAMDSPGEARMFYEFIEKYCLNG”, with “not soluble”; and “MGGSHHHHHHGMASALASYFDEHDCEPSDPEQETRTNMLLELARSLFNRMDFEDLGLVVDWDHHLPPPAAKTVVENLPRTVIRGSQAELKCPVCLLEFEEEETAIEMPCHHLFHSSCILPWLSKTNSCPLCRYELPTDDDTYEEHRRDKARKQQQQHRLENLHGAMYT”, with “not soluble”; and “MGTKIIGTGVYLPKNVLTNFDLEKIVDTSDEWITTRTGIKERRIAKEETITYMATQAAKEALREANLSPEELDLIILATLTPQKRFPSTACLVQAQLKAKGVYAFDISAACSGFIYALDIADSFIKSGKAKNVLVIGAEKLSEAVDWEDRSTCVLFGDGAGAVVVTRSEDKSDILATRMYAEGSLEELLHADNCGYIRMKGRELFKVAVRSMEEVCREVLEKAGVKPEEVSLVIPHQANVRIINALAEKLNIPKEKVFVNIQKYGNTSAASIPIALHEAIKEGKVKRGDLILMTAMGGGLTWGAVLLRY”, with “soluble”.
Then “MIIRDENYFTDKYELTRTHSEVLEAVKVVKPGKTLDLGCGNGRNSLYLAANGYDVDAWDKNAMSIANVERIKSIENLDNLHTRVVDLNNLTFDRQYDFILSTVVLMFLEAKTIPGLIANMQRCTKPGGYNLIVAAMDTADYPCTVGFPFAFKEGELRRYYEGWERVKYNEDVGELHRTDANGNRIKLRFATMLARKKLEHHHHHH”, with “not soluble”.
Consider “MGSDKIHHHHHHMSSICQGTWDCQNCPKAVDNAIAHIIHPRGYHQPARKCEENFILFLIRGEVLVNSQEYAGTMLRAGEFILQAIGSKFEMLAMTECECIYYRFIQPELFCDFRFNHIMKEVSSPLIYSPLKIIPELKYFLDGSKSYLSESKVCRDLLSLKRKELAFVLGYYYSDYDLASLVHPLSKYTSTFQYFILQNYKKVKTVEELAQLGGYTVSTLRRIFNNVFHEPVYEWMQARRKEGILDELLNTNNSISEICYKYGFESLPHFSNFCKKFFGASPRMLRTNKKTI”, for which the “soluble on expression in E. coli” value is on record as “not soluble”.
Then “MISILRRGLLVLLAAFPLLALAVQTPHEVVQSTTNELLGDLKANKEQYKSNPNAFYDSLNRILGPVVDADGISRSIMTVKYSRKATPEQMQRFQENFKRSLMQFYGNALLEYNNQGITVDPAKADDGKRASVGMKVTGNNGAVYPVQYTLENIGGEWKVRNVIVNGINIGKLFRDQFADAMQRNGNDLDKTIDGWAGEVAKAKQAADNSPEKSVKLEHHHHHH”, with “soluble”; and “MIERRKIAVIGSGQIGGNIAYIVGKDNLADVVLFDIAEGIPQGKALDITHSMVMFGSTSKVIGTNDYADISGSDVVIITASIPGRPKDDRSELLFGNARILDSVAEGVKKYCPNAFVICITNPLDVMVSHFQKVSGLPHNKVCGMAGVLDSSRFRTFIAQHFGVNASDVSANVIGGHGDGMVPATSSVSVGGVPLSSFIKQGLITQEQIDEIVCHTRIAWKEVADNLKTGTAYFAPAAAAVKMAEAYLKDKKAVVPCSAFCSNHYGVKGIYMGVPTIIGKNGVEDILELDLTPLEQKLLGESINEVNTISKVLDNAPAAGA”, with “soluble”; and “MNQPIGIADSSRPKTNVRLTISANNLMDLDVFSKSDPICLIYEKTSGRKATTTEEITVPTWKDKQWTERGRTEVVMNNLNPQFTKTFLLPYFFEETQLLRFEIYDADSPTVGQDLSSHDFLGRFECVLAQIVSYSTLKAHLGKTGQIGAQWRNKDKNTKTGSITIYAEEDEKAEKIQFDVCGEGLDKKDFFGKSDPYLNFKRKFDDGSTHLIHRTEVKPKTLDPRWATVQINTQTLCAKDGDRPIIIECYDHDKWKKGEEPRGDAKFSRDDLIGTAQTTLNELLRGSSDAVEILLTNEKKKAKKGDKYKCSGTLKIWNSRIVIEPTFLDFISGGTQLDFAVAVDFTASNGPPKSSSSLHFMSADRPNQYELALRSVLSICQHYNSSKTFEAFGFGAKLPNQSSVSAIFPLDLQRGTSEVVGITGVMTAYRHALSNVQLYGPTNFAPIIENVARKAQNMIHDSARYQILLIITDGIISDMHATIRSIISASGLPLSIIIIGVGNEDFEKMHELDSDDALLQQDSRIAQRDIVQFVTMREFLNNGQGLYLDPDVIQENLAREVLYEVPAQLTGYMKQRGFQPRPVDDPWRRDSPPPEFDPILDGTGRRAPMLQAPPAGFQYPVYADTSIASAPPMY”, with “not soluble”.
The result for “MSDKDEGTERLVALLERLGVNRWAARSEADDAVVNARNLVPMFLLLREVWKHVVREGDTSWLQKDARLLAQEPEAGWSDMRRALASLQAKGATAQELTDVVKGKQVSLLYDVFETLCDDDPDLEAEFSGIGWGVFETDAVGRPGRRMDRLFAPVVTLDPTGRCMGPRE” reads “not soluble”; that for “MCAALKRCAYRHKGKIMENTNIVTTEQQAPNTISASNAIFNVQALGQLTAFANLMADSQVTVPAHLAGKPADCMAIVMQAMQWGMNPYAVAQKTHLVNGVLGYEAQLVNAVIASSSAIHGRFHYRYGGDWERCTRTQEITRDKNGKNGKYTVTERVRGWTDEDEIGLFVQVGAILRGESEITWGEPLYLSGVVTRNSPLWVSNPKQQIAYLGVKYWARLYCPEVILGVYSPDEVEQREEREINPAPVQRMSVQEITSEVSTRTSAQESAANVDAVADDLRERIDTASSVDQAKAIRADIESQKALLGTALFTELKNKAVKRYYQVNAQNKVEAVINSIPNPGEPEAAEMFAKAESTLGAAKRHLGDELHDKYRVTLDDMKPEYIG”, “not soluble”.
The result for “MLERLKAITNLLKGALEQRSRAEEGYIREEKVKEAIELLEALERDIMEKELKLAKEALEKFDSNRKFYYLVGKLYVEVSKEEAQKLIEDELKMFGGEGK” reads “not soluble”; that for “MAHHHHHHMFMCRVHARARYLYILQNGSVEEMTALLTKLRAAVPSERLIIEHRPQNIGYAAAVNEGYRVALQKPHAEVPFIGVFNCDVYFERRYFGRYIPVVYKMLAPDAARIRALEEVVEQEERAARAAGRQTLRASVATTPGLSISMLLPDRIRYSSFAEQQDEFKGHVGMFYYETKSMCAFLVSRLALLVGGFLDENFYPAYFEDYDWQFRLANLGFKTFTGSSAQFGGFFHRMGGNIRVINKGPAGKSISYDMAAIRVERMLNAKPGIDYGETKWAWHREALVAMSATPFPQLGFIVPLDVWVLDAARHQLIIDIGTGRRPSVEMSNTYNVSLLSSLRRFALADGKDFWGSGIITTEPDWRK”, “not soluble”.
“SEADASVDMFSKVLEHQLLQTTKLVEEHLDSEIQKLDQMDEDELERLKEKRLQALRKAQQQKQEWLSKGHGEYREIPSERDFFQEVKESENVVCHFYRDSTFRCKILDRHLAILSKKHLETKFLKLNVEKAPFLCERLHIKVIPTLALLKDGKTQDYVVGFTDLGNTDDFTTETLEWRLGSSDILNYSGNLMEPPFQNQKKFGTNFTKLEKKTIRGKKYDSDSDDD”: the “soluble on expression in E. coli” value was “soluble”.
For the sequence “MEKIVYEQLKETLYYEKLPNGLDVYILPKQGFNKTFATSTTKYGSVDNTFVPLGKEEMIRVPDGIAHFLEHKLFEKEDHDAFQLFSKQGASANAFTSFTRTAYLFSCTSNVEQNLNTLLNFVQEPYFSEKTVEKEKGIIGQEIQMYQDNPDWRLYFGLIDSLFVKHPIKIDIAGTIESISKITKDLLYECYETFYHPSNMLMFVVGAIDPEKTMDLVHENQAKKDYKNQPEIVRSFEEEPDEVNEKKKIISMPVQTPKCLVGIKATNLKEKGEALLKQEIALTLLLDYLFGKSSVHYESLYNEGLIDDTFSYDYTEENNFGFAMVGGDTKQPDELEERLKSILLNTNYNQLDEAALERVKKKKIGGFLRSLNSPEYIANQFTRYAFNESSLFDALTVLESLTVQDLQEVAQLLLSEEKMSVCQVLPKK”, the “soluble on expression in E. coli” value is on record as “not soluble”.
The result for “MLIAIEGVDGAGKRTLVEKLSGAFRAAGRSVATLAFPRYGQSVAADIAAEALHGEHGDLASSVYAMATLFALDRAGAVHTIQGLCRGYDVVILDRYVASNAAYSAARLHENAAGKAAAWVQRIEFARLGLPKPDWQVLLAVSAELAGERSRGRAQRDPGRARDNYERDAELQQRTGAVYAELAAQGWGGRWLVVGADVDPGRLAATLAPPDVPS” reads “soluble”.
The result for “AWVDQTPRSVTKETGESLTINCALKNAADDLERTDWYRTTLGSTNEQKISIGGRYVETVNKGSKSFSLRIRDLRVEDSGTYKCGAYFSDAMSNYSYPIPGEKGAGTVLTVKAA” reads “soluble”; that for “MLKLKFNEEGLIPVIAQDYRTGEVRMLAYANEEAIKKTLETGYAHYYSRSRKKIWKKGETSGELQKVIEVRVDCDEDALIYVIEQEKDRACHTGERNCFFRDIEGNKVEKPLPFEVLPRLQDVIREKIERKEENSYTAKLVSQGKERVFQKFGEEAVETLIALMKGEKEEVIYESADMLYTFLVSLSVSGIDIKEVMEELIRRFK”, “soluble”; that for “MAHHHHHHMITLQLEQHRQQLENELRKVQLQQAQQQQQLQHVQHHHNQHNQHQQQQQLQYQQSLPPVQTTMVTIDGRLYRMVSASSGEAFVNRGQPCRDLHFVDRSALVSDGSAGADGRTEAAAPQPSNHPGVCMPVSPQAELSPQQQQQHMIITVAGDRSALGETTSAAAAASLAKSSAPGTNVMLVMPTPSASHKVKYGY”, “soluble”.
Then “MDNLLAQKKPINILLLGTDTGAMGRSWKGRTDTIMMMAINPKTNSTSIVSIPRDSNAIFPDFPQYGVTKINSAYTLGGVGETVKTLDKYYSVPIDGYIMINMGGLKKAIDQVGGIDVTSPLTFDNMGYHFQEGKTYHMDGKKALAFAQLRHGDPRQDYGRQDRDRRVVMALLKKSISPTTLLNTKFLNSISSEMQTDLTMNQMYKIGMDYRHATDNLSQDHAQGVSKQTQNPKFGTMEIEVVSRQERQRVSDKLRAALGLPKVRVAANSASYVMNQLEHHHHHH”, with “soluble”.
In the case of “MGSDKIHHHHHHMSDITHTGEHQALVVGATGIIGSAILHRLGAAEGWTAIGLSRSRRVAEGRARMLEVDLLDPQDCARKLGALNRITHIFYAAYQARPSRAEEVAPNVQMLRNVVDAVSGRARGLKKIVLITGAKFYGIQWGRVKTPMKETDARQLPPNFYYDQEDFLRDAQRQADWHWCNLIPPFVSGYSVGNPMNLVMAIGVFASLSRELNLPLRFPGLPGAWSALQQIADAEQIAAAAHWAATSPAANNEAFNVTNGDPIRWENFWPAVAGHFGMRLEAPKTLPLGRLMADNEAAWARMVERYRLQAASIAKLVDWNWADYMFRMEYDVLMETGKIRRAGFQDCVDTTERFLARFRQLQQQQIIPR”, the “soluble on expression in E. coli” value is recorded as “not soluble”.
The result for “MGSDKIHHHHHHMEIIAGYRTTSDSRYIALIKADGNNAGKIFGNTVTFSEYVDKSFRLDFGVKKMFYDTLLDIMRASSDESIKKDLVSRILLGVLYLGGDDIMLLSPSAIAVPFAVKMFKRSLEYTGFTFKVGIISVKPDHPVQFAYGAVNALMEESKIHTGEKSSIGVLVFSSTLASEGVVKSDLKNYRKEKESFLVVSNDVDDVERLLNLMELDDFGKLMELYWNPEEGRKVIRDKIRSLERFVNYADTHDFYNTLAYLIRSKAKSEENSLIKRIIDLTIKGRDDFVFPLYDYYFILKSIRVGI” reads “not soluble”.
